According to publication PMC12065894 (Nature Communications, 2025):

Molecular target: the molecule itself
Assay: crystal structure; contact between molecules of the crystal lattice: the cleaved zymogen activation motif of one protease molecule lies in the substrate binding cleft of a neighbouring one; crystals grown at 18 °C

B1: dasTMPRSS11D (active, autocleaved TMPRSS11D with DDDDK zymogen activation motif) (enzyme)
chain 1: ANWLINECGAGPDLITDDDDK
chain 2: not shown
notes: also called active dasTMPRSS11D; Human Airway Trypsin-like protease
- binding result: binds
